Measurements: patent publication US20250043302A1, “MUTATED HYDROXYPHENYLPYRUVATE DIOXYGENASE POLYPEPTIDE, AND CODING GENE AND USE THEREOF” (BEIJING DABEINONG BIOTECHNOLOGY CO., LTD., priority 2021, published 2025)

How the values were obtained:
Assay type in all cases: in vivo
[1] = test system: Arabidopsis thaliana T1 plants; assay: Topramezone tolerance of transgenic Arabidopsis thaliana T1 plants (spray, bleached leaf area grade, damage score); details: 7 DAT, Table 4; for Classification and statistics of the grade of pesticide damage: Grade 0 / Classification and statistics of the grade of pesticide damage: Grade 1 / Classification and statistics of the grade of pesticide damage: Grade 2 / Classification and statistics of the grade of pesticide damage: Grade 3: number of plants; for Scores: pesticide damage score 0-100
In short: (§1)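 Damage was assessed by bleaching grade (0 none; 1 <50%; 2 >50%; 3 100% of leaf area) one week after spraying. Sprays on 18-day-old T1 and wild-type plants used field-rate multiples: topramezone 25–200, isoxaflutole 35–280, mesotrione 52.5–420 g ai/ha.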

[2] = test system: Arabidopsis thaliana T1 plants; assay: Isoxaflutole tolerance of transgenic Arabidopsis thaliana T1 plants (spray, bleached leaf area grade, damage score); design: Scores (pesticide damage): scale not given here; details: spray, Arabidopsis thaliana T1 plants; for Classification and statistics of the grade of pesticide damage: Grade 0 (number of plants) / Classification and statistics of the grade of pesticide damage: Grade 1 (number of plants) / Classification and statistics of the grade of pesticide damage: Grade 2 (number of plants) / Classification and statistics of the grade of pesticide damage: Grade 3 (number of plants): 16 plants
In short: as §1

[3] = test system: Arabidopsis thaliana T1 plants; assay: Mesotrione tolerance of transgenic Arabidopsis thaliana T1 plants (spray, bleached leaf area grade, damage score); design: Scores: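 damage score 0-100 computed as Σ(N×S)/(T×M)×100 over grades 0-3 with higher meaning more damage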; details: Arabidopsis thaliana T1 plants; for Grade 0 (classification and statistics of the grade of pesticide damage; number of plants) / Grade 1 (classification and statistics of the grade of pesticide damage; number of plants) / Grade 2 (classification and statistics of the grade of pesticide damage; number of plants) / Grade 3 (classification and statistics of the grade of pesticide damage; number of plants): 16 plants
In short: as §1

[4] = isoxaflutole 35 g ai/ha (0.5x field concentration)
[5] = isoxaflutole 70 g ai/ha (1x field concentration)

B1: GsHPPDm-F383W-02: nucleotide sequence encoding Gossypium hirsutum HPPD with F383W; vector DBN11740 (nucleic acid)
DNA: ATGGTTCAAACAAATCAATCTGGTTCTGGGAATGATTTCAAGCTGGTTGGTTTCTCAAATTTTGTGCGTAGCAATCCCAAATCAGACCGCTTCACGGTCAAGAGATTCCACCACATTGAATTTTGGTGCACTGATGCCACTAATGTGGCGAGGAGGTTTTCATGGGGTTTAGGGATGCAGTTCGTCGCCAAGAGTGACCTCTCCACAGGAAATTTGACGCATGCAAGCTACCTGCTGCGGAGCCGCGACTTGAATTTCCTGTTTACAGCACCATATTCACCCAGTATTGCAGTTGCTCAAAACCTTTCGCCACAAAGCACTGCTTCCATACCTTCATTTGATCACTCGCTTTGTCGGTCCTTTGCTGCAACACATGGACTTGGCGTCAGAGCAATTGCCATCGAGGTGGACGACGCCGAAACTGCCTTCACCACGAGCGTGACACATGGCGCGCTCCCTTTTTGTCCACCAACACCACTAGGAGATGTGGCTACAATTGCTGAAGTTAAATTATATGGTGATGTTGTGCTCAGATATGTTTCTTACACCACAACCATCAACTCCGACCATGATTTTCTGCCTGGTTTTGAGAAGATTGAAGATACTCTATCGTATCCTTTGGATTATGGCCTGCGTCGGCTCGATCATGCTGTTGGCAACGTACCTGAATTAGGTCCTGCTGTATCTTATGTGAAATCTTTTACTGGGTTCCATGAGTTTGCAGAGTTCACCGCTGAGGATGTAGGAACAAGTGAATCTGGGCTGAACTCAGTTGTTTTGGCCAACAATGAGGAAATGGTCCTCTTACCAATGAACGAGCCGGTGTTCGGCACTAAGCGCAAATCTCAAATACAGACCTACTTGGAGCACAATGAAGGAGCTGGTGTGCAGCACCTCGCCCTCGTCTCGGAGGACATCTTCAAAACTTTAAGGGAGATGAGGAAACGATCCTTTGTGGGAGGATTTGAATTCATGCCTTCTCCGCCGCCGACATACTACAAGAAGCTCAAGCAGCGCGCGGGGGACATTTTGTCTGATGAGCAGATCAAGGAGTGTGAAGAGCTTGGGATTCTTGTTGATAGAGATGATCAAGGAACGCTTCTGCAGATATTTACCAAGCCCGTCGGCGACCGGCCTACTATATGGATTGAGATCATCCAGAGAATTGGTTGCATGGTGAAGGATGAAGAAGGGAAACAGTACCAGAAGGGCGGCTGCGGCGGGTTTGGAAAAGGAAACTTCAGTGAGCTGTTTAAAAGTATAGAGGAGTATGAAAAGAGCTTGGAAGCAAAACAATCACAAAATCCATGA
modifications: GsHPPDm-F383W-02 Nucleotide Sequence
notes: vector DBN11740
With B1 the “Classification and statistics of the grade of pesticide damage: Grade 0” value ([1]; topramezone 25 g ai/ha (1×)) was 0, the “Classification and statistics of the grade of pesticide damage: Grade 1” value ([1]; topramezone 25 g ai/ha (1×)) was 3 and the “Classification and statistics of the grade of pesticide damage: Grade 2” value ([1]; topramezone 25 g ai/ha (1×)) was 9. The “Classification and statistics of the grade of pesticide damage: Grade 3” value ([1]; topramezone 25 g ai/ha (1×)) was 4, the “Classification and statistics of the grade of pesticide damage: Grade 0” value ([1]; topramezone 100 g ai/ha (4×)) was 0 and the “Classification and statistics of the grade of pesticide damage: Grade 1” value ([1]; topramezone 100 g ai/ha (4×)) was 0. The “Classification and statistics of the grade of pesticide damage: Grade 2” value ([1]; topramezone 100 g ai/ha (4×)) was 0, the “Classification and statistics of the grade of pesticide damage: Grade 3” value ([1]; topramezone 100 g ai/ha (4×)) was 16 and the Scores ([1]; topramezone 25 g ai/ha (1×)) was 69. The Scores ([1]; topramezone 100 g ai/ha (4×)) was 100, the Resistance evaluation ([1]; topramezone 25 g ai/ha (1×)) was “non-resistant (non-resistant plants (scores 68-100))” and the Resistance evaluation ([1]; topramezone 100 g ai/ha (4×)) was “non-resistant (non-resistant plants (scores 68-100))”. For the same molecule, the Resistance evaluation [2, 4] was “Non-resistant”, the “Scores (pesticide damage)” value [2, 4] was 73 and the “Classification and statistics of the grade of pesticide damage: Grade 0 (number of plants)” value [2, 4] was 0. For the same molecule, the “Classification and statistics of the grade of pesticide damage: Grade 1 (number of plants)” value [2, 4] was 2, the “Classification and statistics of the grade of pesticide damage: Grade 2 (number of plants)” value [2, 4] was 9 and the “Classification and statistics of the grade of pesticide damage: Grade 3 (number of plants)” value [2, 4] was 5. The Resistance evaluation [2, 5] was “Non-resistant”, the “Scores (pesticide damage)” value [2, 5] was 100 and the “Classification and statistics of the grade of pesticide damage: Grade 0 (number of plants)” value [2, 5] was 0. For the same molecule, the “Classification and statistics of the grade of pesticide damage: Grade 1 (number of plants)” value [2, 5] was 0, the “Classification and statistics of the grade of pesticide damage: Grade 2 (number of plants)” value [2, 5] was 0 and the “Classification and statistics of the grade of pesticide damage: Grade 3 (number of plants)” value [2, 5] was 16. The Resistance evaluation ([3]; mesotrione 52.5 g ai/ha) was “Non-resistant”, the Scores ([3]; mesotrione 52.5 g ai/ha) was 100 and the “Grade 0 (classification and statistics of the grade of pesticide damage; number of plants)” value ([3]; mesotrione 52.5 g ai/ha) was 0. The “Grade 1 (classification and statistics of the grade of pesticide damage; number of plants)” value ([3]; mesotrione 52.5 g ai/ha) was 0, the “Grade 2 (classification and statistics of the grade of pesticide damage; number of plants)” value ([3]; mesotrione 52.5 g ai/ha) was 0 and the “Grade 3 (classification and statistics of the grade of pesticide damage; number of plants)” value ([3]; mesotrione 52.5 g ai/ha) was 16. The Resistance evaluation ([3]; mesotrione 105 g ai/ha) was “Non-resistant”, the Scores ([3]; mesotrione 105 g ai/ha) was 100 and the “Grade 0 (classification and statistics of the grade of pesticide damage; number of plants)” value ([3]; mesotrione 105 g ai/ha) was 0. The “Grade 1 (classification and statistics of the grade of pesticide damage; number of plants)” value ([3]; mesotrione 105 g ai/ha) was 0, the “Grade 2 (classification and statistics of the grade of pesticide damage; number of plants)” value ([3]; mesotrione 105 g ai/ha) was 0 and the “Grade 3 (classification and statistics of the grade of pesticide damage; number of plants)” value ([3]; mesotrione 105 g ai/ha) was 16.
